Assay results as given in paper PMC7260205, “Steric occlusion regulates proximal interactions of acyl carrier protein domain in fungal fatty acid synthase” (Communications Biology, 2020).

Target: the molecule itself
Assay: cryo-EM structure; FAS1-His6 and FAS2 co-expressed and purified as one complex; 1-2 mg/ml in TBS (50 mM Tris pH 7.4, 150 mM NaCl) on holey gold grids; WT apo or with acetyl-CoA, malonyl-CoA and NADPH; mutants with substrates; D3 symmetrised maps; for H1564A and H740A also symmetry expansion, signal subtraction and focused classification

B1: S. cerevisiae fatty acid synthase FAS2 polypeptide (α-chain), wild type (enzyme)
chain: MKPEVEQELAHILLTELLAYQFASPVRWIETQDVFLKDFNTERVVEIGPSPTLAGMAQRTLKNKYESYDAALSLHREILCYSKDAKEIYYTPDPSELAAKEEPAKEEAPAPTPAASAPAPAAAAPAPVAAAAPAAAAAEIADEPVKASLLLHVLVAHKLKKSLDSIPMSKTIKDLVGGKSTVQNEILGDLGKEFGTTPEKPEETPLEELAETFQDTFSGALGKQSSSLLSRLISSKMPGGFTITVARKYLQTRWGLPSGRQDGVLLVALSNEPAARLGSEADAKAFLDSMAQKYASIVGVDLSSAASASGAAGAGAAAGAAMIDAGALEEITKDHKVLARQQLQVLARYLKMDLDNGERKFLKEKDTVAELQAQLDYLNAELGEFFVNGVATSFSRKKARTFDSSWNWAKQSLLSLYFEIIHGVLKNVDREVVSEAINIMNRSNDALIKFMEYHISNTDETKGENYQLVKTLGEQLIENCKQVLDVDPVYKDVAKPTGPKTAIDKNGNITYSEEPREKVRKLSQYVQEMALGGPITKESQPTIEEDLTRVYKAISAQADKQDISSSTRVEFEKLYSDLMKFLESSKEIDPSQTTQLAGMDVEDALDKDSTKEVASLPNKSTISKTVSSTIPRETIPFLHLRKKTPAGDWKYDRQLSSLFLDGLEKAAFNGVTFKDKYVLITGAGKGSIGAEVLQGLLQGGAKVVVTTSRFSKQVTDYYQSIYAKYGAKGSTLIVVPFNQGSKQDVEALIEFIYDTEKNGGLGWDLDAIIPFAAIPEQGIELEHIDSKSEFAHRIMLTNILRMMGCVKKQKSARGIETRPAQVILPMSPNHGTFGGDGMYSESKLSLETLFNRWHSESWANQLTVCGAIIGWTRGTGLMSANNIIAEGIEKMGVRTFSQKEMAFNLLGLLTPEVVELCQKSPVMADLNGGLQFVPELKEFTAKLRKELVETSEVRKAVSIETALEHKVVNGNSADAAYAQVEIQPRANIQLDFPELKPYKQVKQIAPAELEGLLDLERVIVVTGFAEVGPWGSARTRWEMEAFGEFSLEGCVEMAWIMGFISYHNGNLKGRPYTGWVDSKTKEPVDDKDVKAKYETSILEHSGIRLIEPELFNGYNPEKKEMIQEVIVEEDLEPFEASKETAEQFKHQHGDKVDIFEIPETGEYSVKLLKGATLYIPKALRFDRLVAGQIPTGWNAKTYGISDDIISQVDPITLFVLVSVVEAFIASGITDPYEMYKYVHVSEVGNCSGSGMGGVSALRGMFKDRFKDEPVQNDILQESFINTMSAWVNMLLISSSGPIKTPVGACATSVESVDIGVETILSGKARICIVGGYDDFQEEGSFEFGNMKATSNTLEEFEHGRTPAEMSRPATTTRNGFMEAQGAGIQIIMQADLALKMGVPIYGIVAMAATATDKIGRSVPAPGKGILTTAREHHSSVKYASPNLNMKYRKRQLVTREAQIKDWVENELEALKLEAEEIPSEDQNEFLLERTREIHNEAESQLRAAQQQWGNDFYKRDPRIAPLRGALATYGLTIDDLGVASFHGTSTKANDKNESATINEMMKHLGRSEGNPVIGVFQKFLTGHPKGAAGAWMMNGALQILNSGIIPGNRNADNVDKILEQFEYVLYPSKTLKTDGVRAVSITSFGFGQKGGQAIVVHPDYLYGAITEDRYNEYVAKVSAREKSAYKFFHNGMIYNKLFVSKEHAPYTDELEEDVYLDPLARVSKDKKSGSLTFNSKNIQSKDSYINANTIETAKMIENMTKEKVSNGGVGVDVELITSINVENDTFIERNFTPQEIEYCSAQPSVQSSFAGTWSAKEAVFKSLGVKSLGGGAALKDIEIVRVNKNAPAVELHGNAKKAAEEAGVTDVKVSISHDDLQAVAVAVSTKK
notes: Fatty acid synthase subunit alpha (FAS2 gene product), S. cerevisiae strain BJ2168, gene amplified from genomic DNA into NcoI-digested pET-15b(+); holds the ACP domain (residues 140-302), KR and KS domains; Serine 180 of the ACP domain is called the phosphopantetheine attachment site; No tag is named for FAS2; also called JWL03; holds the ACP domain; source: E. coli BL21, co-expressed with …
binding result: binds
